These results are taken from US20160208226A1, “Transaminase Biocatalysts” (COMMONWEALTH SCIENTIFIC AND INDUSTRIAL RESEARCH ORGANISATION, priority 2013, published 2016).

The nature of data set [1]: Solubility of the substrates in the alanine dehydrogenase-coupled kinetic assay. The following applies: assay buffer; kinetic parameters cannot be determined. It counts as physicochemical. The source says: The alanine dehydrogenase-coupled assay has been used to determine some early kinetic parameters for p6 and p7. Reactions with C3 to C8 for p6 and C4 to […] have been fully characterised and show no clear trend in terms of reaction rate vs. carbon chain length. For C11 and C12, the solubility of the substrates is extremely low, and as such, kinetic parameters cannot be determined.
The alanine dehydrogenase-coupled assay has been used to determine some early kinetic parameters for all the aforementioned enzymes. Reactions with C3 to C8 for p6 and C4 to C8 for p7 have been fully characterised and show no clear trend in terms of reaction rate vs. carbon chain length. For C11 and C12, the solubility of the substrates is extremely low, and as such, kinetic parameters cannot be determined.

Data set [2] is described as follows: Coupled dehydrogenase assays for transaminase activity of the Pseudomonas sp. proteins and ancestral reconstructions. Format: biochemical. The following applies: E. coli expressed, purified proteins. As to the method: Activity for each protein was assessed using coupled dehydrogenase assays as described previously. A typical assay comprised:
Substrate (6.25 mM final concentration in potassium phosphate buffer)
Co-substrate (pyruvate (0.5 mM final concentration) or α-KG (0.25 mM final concentration)
NAD (1.25 mM final concentration)
Dehydrogenase (1 μL from ADH-≧35 units/mL stock solution or GDH≧35 units/mg protein stock)
Transaminase (final concentration dependent)
Potassium phosphate buffer (100 mM)
UV absorbance at 340 nm was recorded at 28° C. over a pH range of 7.5-10 with a range of substrates.
Proteins encoded by p7N6, p7N15, p7N16, p7N17, p7N43 and p7N48 were expressed using an E. coli recombinant expression platform and subsequently purified.
Each of the proteins were assayed for substrate specificity. Substrates identified by assaying for each of the proteins are summarized below.

Data set [3] in a line: Coupled assay of GabT with glutamate dehydrogenase (NADH formation at 340 nm). Format: biochemical. The following applies: coupled GDH assay, NADH detected at 340 nm. The source says:
DNA encoding the GabT protein from E. coli strain BL21-DE3 was amplified from genomic DNA using specially designed primers. The PCR product was restricted using NdeI and BamHI restriction endonucleases (NEB) and ligated (T4 DNA ligase, NEB) into a modified pET expression vector that had also been restricted using the aforementioned enzymes, and contained ampicillin resistance for selectivity. The vector was transformed into electrocompetent E. coli strain BL21-DE3 and transformants plated onto LB agar plates containing ampicillin (100 μg/mL) for selectivity. Transformant DNA was isolated and sent for sequencing to confirm the identity of the vector construct. […] The protein was purified using a HiTrap Chelating HP 5 mL column (GE Healthcare) for nickel affinity chromatography on an FPLC (Fast Protein Liquid Chromatography. GE Healthcare), exploiting an N-terminal His6-tag on GabT. SDS-PAGE confirmed the protein size.
Protein activity was confirmed using a coupled assay that comprised GabT and a commercially available glutamate dehydrogenase (GDH; Sigma Aldrich). The assay works as illustrated below, with the dehydrogenase catalysing the oxidative deamination of glutamate—the co-product of the GabT transamination reaction.
Therefore, although a viable biocatalyst for these substrates had been identified, it could not produce the desired longer chain (>C9) products. […]

On to `NCCCCCCCCCCCC(=O)O` [C12, 12-aminododecanoic acid], for which the “solubility of the substrates” value in data set [1] is “extremely low”.

With `NCCCCCCCCCCC(=O)O` [C11, 11-aminoundecanoic acid], in data set [1], the “solubility of the substrates” value is given as “extremely low”.

B1: p7N43: de novo peptide sequence based on p7, produced by ancestral reconstruction; SEQ ID NO:11 (protein)
chain: MTSLEQLLEMDRAHFMHPSTHAYDHASGALPGRIITGGKGIRIEDHEGREYIDAFAGLYCVNIGYGREEVADAIYEQAKQLAYYHTYVGHSNDPVIELSSRIIEDWAPAGMKKVFYGMSGSDANETQIKLVWYYNNVLGRPNKKKIIARERSYHGSGIVTGSLTGLPSFHQHFDLPIDRVKHTVCPHWYNAPPGMSEAQFVAYCVEELEKLIAREGADTIAAFIAEPVMGTGGIVPPPQGYWEAIQAVLRKHDILLIADEVVCGFGRLGSKTGSEHYGIKPDLITVAKGLTSAYAPLSAVIVSEKVWDVIEKGSREHGVMGHGWTYSGHPVCAAAALANLDILERENLTGNAADVGAYLQQRLHEAFGAHPLVGEVRGVGMLAALEFMADKGARTPFDPALKVSQKVAAAALEDGLIVRALPHGDILGFAPPLVTTRAEVDEIVAIAKEAFDEVADAVL
modifications: Molecule produced by ancestral reconstruction
For B1, in data set [2], the “activity of ancestral reconstruction proteins in the coupled assays” value (“activity” below) is on record as “activity in accordance with p7”.

B2: GabT: Gamma-aminobutyrate Transaminase; E.C. 2.6.1.19, from E. coli strain BL21-DE3, N-terminal His6-tag (protein, listed as Escherichia coli)
chain: MNSNKELMQRRSQAIPRGVGQIHPIFADRAENCRVWDVEGREYLDFAGGIAVLNTGHLHPKVVAAVEAQLKKLSHTCFQVLAYEPYLELCEIMNQKVPGDFAKKTLLVTTGSEAVENAVKIARAATKRSGTIAFSGAYHGRTHYTLALTGKVNPYSAGMGLMPGHVYRALYPCPLHGISEDDAIASIHRIFKNDAAPEDIAAIVIEPVQGEGGFYASSPAFMQRLRALCDEHGIMLIADEVQSGAGRTGTLFAMEQMGVAPDLTTFAKSIAGGFPLAGVTGRAEVMDAVAPGGLGGTYAGNPIACVAALEVLKVFEQENLLQKANDLGQKLKDGLLAIAEKHPEIGDVRGLGAMIAIELFEDGDHNKPDAKLTAEIVARARDKGLILLSCGPYYNVLRILVPLTIEDAQIRQGLEIISQCFDEAKQ
modifications: N-terminal His6-tag
notes: Gamma-aminobutyrate Transaminase; E.C; 2.6.1.19, from E. coli strain BL21-DE3, N-terminal His6-tag
Take B2: the “substrate scope of GabT” value in data set [3] was “C4-C8 omega-amino acids”.

B3: p7N16: de novo peptide sequence based on p7, produced by ancestral reconstruction; SEQ ID NO:9 (protein)
chain: MQSLDQLFEMDRAHFMHPSTHAHDHASGALPGRIITGGKGIRIEDHEGREYIDAFAGLYCVNIGYGRTEVADAIYEQAKQLAYYHTYVGHSTDAIIELSSRIIRDWAPAGMKKVYYGMSGSDANETQIKLVWYYNNVLGRPNKKKIISRERGYHGSGIVTGSLTGLPSFHQHFDLPIDRVKHTVCPHWYRAPAGMSEAQFVAYCVEELEKLIAREGADTIAAFIAEPVMGTGGIIPPPQGYWEAIQAVLRKHDILLIADEVVCGFGRLGSKMGSQHYGIKPDLITVAKGLTSAYAPLSGVIVGEKVWDVIEKGSQEHGPMGHGWTYSGHPICAAAALANLDILERENLTGNAADVGAYLQQRLHEAFGAHPLVGEVRGVGMLAALEFMADKDARTPFDPALKVGPKVSAAALEDGMIARAMPHGDILGFAPPLVTTRAEVDEIVGIAKQAVDEVADEVL
modifications: Molecule produced by ancestral reconstruction
For the molecule B3, the “activity” value in data set [2] is “activity in accordance with p7”.

B4: p7N48: de novo peptide sequence based on p7, produced by ancestral reconstruction; SEQ ID NO:12 (protein)
chain: MTDTDDLLEMDRAHFFHPSTHLRDHASGELPGRIITGGKGIRIQDSEGREYIDAFAGLYCVNVGYGRTEIADAIYEQAKELAYYHTYVGHSNEPIIELSERIIREWAPAGMSKVYYGMSGSDANETQIKLVWYYNNVLGRPQKKKIISRQRGYHGSGIMTGSLTGLPAFHNHFDLPLEPIRHTTCPHYYRAPAGMSEAEFSRHCADELEKMILAEGPDTVAAFIGEPVMGTGGIVPPPEGYWEAIQAVLNKYDILLIADEVVCGFGRTGSMFGSHHYGMKPDLITVAKGLTSAYAPLSGVIVGEKVWKVLEQGSDQYGPIGHGWTYSGHPICAAAALANLDIIERENLTGNAADTGAYFQQRMRETFGDHPLVGEVRGVGLMAALEFVADKDKRTRFDPSLKVGPRVSAACLEDGMIARAMPHGDILGFAPPLVITRAEVDEIVDIAKQAVDAVADELV
modifications: Molecule produced by ancestral reconstruction
Consider B4, for which the “activity” value in data set [2] is reported as “activity in accordance with p7”.

B5: p7N15: de novo peptide sequence based on p7, produced by ancestral reconstruction; SEQ ID NO:8 (protein)
chain: MTDLDQLFEMDRAHFMHPSTHAHDHASGALPGRIITGGKGIRIQDHEGREYIDAFAGLYCVNIGYGRTEVADAIYEQAKELAYYHTYVGHSTEAIIELSSRIIRDWAPAGMKKVYYGMSGSDANETQIKLVWYYNNVLGRPQKKKIISRQRGYHGSGIMTGSLTGLPSFHQHFDLPIERIKHTVCPHWYKAPAGMSEAQFVRYCADELEKLILAEGPDTVAAFIGEPVMGTGGIIPPPQGYWEAIQAVLNKYDILLIADEVVCGFGRLGSKMGSQHYGMKPDLITVAKGLTSAYAPLSGVIVGEKVWDVIEKGSQEHGPMGHGWTYSGHPICAAAALANLDILERENLTGNAADVGAYLQQRLRETFGGHPLVGEVRGVGMLAALEFMADKDARTPFDPALKVGPKVSAACLEDGMIARAMPHGDILGFAPPLVITRAEVDEIVGIAKQAVDEVADEVL
modifications: Molecule produced by ancestral reconstruction
Consider B5, for which the “activity” value in data set [2] is reported as “activity in accordance with p7”.

B6: p7N17: de novo peptide sequence based on p7, produced by ancestral reconstruction; SEQ ID NO:10 (protein)
chain: MTSLDQLFEEDRAHFMHPSTHAHDHASGALPGKIVTGGKGIRIEDHQGREYIDAFAGLYCVNIGYGRTEVADAIYEQAKQLAYYHTYVGHSTDAIIELSSRIIRDWAPAGMKKVYYGMSGSDANETQIKIVWYYNNVLGRPNKKKIISRERGYHGSGIVTGSLTGLPSFHQHFDLPIDRVKHTVCPHWYKAPAGMSEAQFVAYCVEELEKLIAREGADTIAAFIAEPVMGTGGIIAPPQGYWEAIQAVLRKHDILLISDEVVCGFGRLGSKMGAQHYGIKPDLITVAKGLTSAYAPLSGVIVGEKVWDVIEKGSQEHGPMGHGWTYSGHPICAAAALANLDILERENLTGNAADVGAYLQQRLHEAFGAHPLVGEVRGVGMLAALEFMADKDARTPFDPALKVGPKVSAAALEDGVIARAMPHGDILGFAPPLVTTRAEVDEIVGIVKQAVDEVADEVL
modifications: Molecule produced by ancestral reconstruction
For B6, the “activity” value in data set [2] is “activity in accordance with p7”.
